# Patent US20080227691A1
# Target: LRP (low density lipoprotein receptor-related protein) (human) (UniProt Q07954)
# Experiment: SPR, Biacore 3000, LRP amine-coupled to CM5 chip, A2 domain as analyte 62.5-500 nM, 1:1 Langmuir fit, 25 C
row,Kd [µM],Substance
1,0.17,HPC4-tagged A2 domain mutant 433D->N (from UniProt P00451 392-759) (ligand)
2,0.26,HPC4-tagged A2 domain mutant 488S->N & 490R->T (from UniProt P00451 392-759) (ligand)
3,0.02,HPC4-tagged A2 domain of wild-type FVIII (from UniProt P00451 392-759) (ligand)
